Test results from article PMC3236198.

Target: ΔC SSB (Escherichia coli) (UniProt P0AGE0)
Test: SEC

Substance: ΔC SSB (from UniProt P0AGE0 1-113) (domain or fragment)
- stoichiometry N: 4
